Results from paper PMC2645691.
Positions count from the first letter of the chain named. One block for each binder: values may come before it.

Target: FLAG-tagged MAGI-1L (C. elegans)
Assay: co-IP; COS-7 cells cotransfected with FLAG- and GST-tagged proteins; lysis in modified RIPA (50 mM Tris-HCl pH 7.4, 125 mM NaCl, 0.25% NP-40); anti-FLAG beads; blots with anti-FLAG and anti-GST, films quantified against input

percent coimmunoprecipitated: 10%
B1: GST fused to the GLR-2 cytosolic domain (GST::GLR-2) (domain or fragment)
chain: VEFLFRKNKENREKERNRMRSSRPLKPGILASCERAKQKQLQNRRTKSEEVSTPRSTLF

percent coimmunoprecipitated: 0 to 2%
B2: GST fused to the GLR-2 cytosolic domain with a mutated PDZ recognition motif (GST::GLR-2AAA) (domain or fragment)
chain: B1 chain with T57A, L58A, F59A
